Results reported in patent US20210284709A1 (JUNO THERAPEUTICS, published 2021).
Positions count from the first letter of the chain named.

B1: TCR 46 (codon-optimized, cysteine-modified) (TCR, V domains shown)
V domain 1: AQSVTQLDSQVPVFEEAPVELRCNYSSSVSVYLFWYVQYPNQGLQLLLKYLSGSTLVKGINGFEAEFNKSQTSFHLRKPSVHISDTAEYFCAVSPSSGTYKYIFGTGTRLKVLA
V domain 2: GAGVSQTPSNKVTEKGKYVELRCDPISGHTALYWYRQSLGQGPEFLIYFQGTGAADDSGLPNDRFFAVRPEGSVSTLKIQRTERGDSAVYLCASSLYLGGSETQYFGPGTRLLVLE
B2: TCR 50 (codon-optimized, cysteine-modified) (TCR, V domains shown)
V domain 1: GEDVEQSLFLSVREGDSSVINCTYTDSSSTYLYWYKQEPGAGLQLLTYIFSNMDMKQDQRLTVLLNKKDKHLSLRIADTQTGDSAIYFCAESPPGTYKYIFGTGTRLKVLA
V domain 2: DSGVTQTPKHLITATGQRVTLRCSPRSGDLSVYWYQQSLDQGLQFLIHYYNGEERAKGNILERFSAQQFPDLHSELNLSSLELGDSALYFCASSATRDAYGYTFGSGTRLTVVE
B3: TCR 41 (codon-optimized, cysteine-modified) (TCR, V domains shown)
V domain 1: RKEVEQDPGPFNVPEGATVAFNCTYSNSASQSFFWYRQDCRKEPKLLMSVYSSGNEDGRFTAQLNRASQYISLLIRDSKLSDSATYLCVVTFALTGGFKTIFGAGTRLFVKA
V domain 2: EPEVTQTPSHQVTQMGQEVILRCVPISNHLYFYWYRQILGQKVEFLVSFYNNEISEKSEIFDDQFSVERPDGSNFTLKIRSTKLEDSAMYFCASNPRDRVSYEQYFGPGTRLTVTE
B4: TCR 37 (codon-optimized, cysteine-modified) (TCR, V domains shown)
V domain 1: ELKVEQNPLFLSMQEGKNYTIYCNYSTTSDRLYWYRQDPGKSLESLFVLLSNGAVKQEGRLMASLDTKARLSTLHITAAVHDLSATYFCAGYSGAGSYQLTFGKGTKLSVIP
V domain 2: GAGVSQSPRYKVAKRGQDVALRCDPISGHVSLFWYQQALGQGPEFLTYFQNEAQLDKSGLPSDRFFAERPEGSVSTLKIQRTQQEDSAVYLCASSLLLGAYGYTFGSGTRLTVVE
B5: TCR 34 (codon-optimized, cysteine-modified) (TCR, V domains shown)
V domain 1: ELKVEQNPLFLSMQEGKNYTIYCNYSTTSDRLYWYRQDPGKSLESLFVLLSNGAVKQEGRLMASLDTKARLSTLHITAAVHDLSATYFCAVSGTYKYIFGTGTRLKVLA
V domain 2: ETGVTQSPTHLIKTRGQQVTLRCSSQSGHNTVSWYQQALGQGPQFIFQYYREEENGRGNFPPRFSGLQFPNYSSELNVNALELDDSALYLCASSSYAGSYEQYFGPGTRLTVTE
B6: TCR 35 (codon-optimized, cysteine-modified) (TCR, V domains shown)
V domain 1: KDQVFQPSTVASSEGAVVEIFCNHSVSNAYNFFWYLHFPGCAPRLLVKGSKPSQQGRYNMTYERFSSSLLILQVREADAAVYYCAVAGDYKLSFGAGTTVTVRA
V domain 2: DSGVTQTPKHLITATGQRVTLRCSPRSGDLSVYWYQQSLDQGLQFLIQYYNGEERAKGNILERFSAQQFPDLHSELNLSSLELGDSALYFCASTTSGDSSYNEQFFGPGTRLTVLE
B7: TCR 39 (codon-optimized, cysteine-modified) (TCR, V domains shown)
V domain 1: GQQLNQSPQSMFIQEGEDVSMNCTSSSIFNTWLWYKQEPGEGPVLLIALYKAGELTSNGRLTAQFGITRKDSFLNISASIPSDVGIYFCAGYSSSNDYKLSFGAGTTVTVRA
V domain 2: EPEVTQTPSHQVTQMGQEVILRCVPISNHLYFYWYRQILGQKVEFLVSFYNNEISEKSEIFDDQFSVERPDGSNFTLKIRSTKLEDSAMYFCASTPRDRGKEAFFGQGTRLTVVE
B8: TCR 44 (codon-optimized, cysteine-modified) (TCR, V domains shown)
V domain 1: GQNIDQPTEMTATEGAIVQINCTYQTSGFNGLFWYQQHAGEAPTFLSYNVLDGLEEKGRFSSFLSRSKGYSYLLLKELQMKDSASYLCAQYSGGYQKVTFGTGTKLQVIP
V domain 2: DSGVTQTPKHLITATGQRVTLRCSPRSGDLSVYWYQQSLDQGLQFLIQYYNGEERAKGNILERFSAQQFPDLHSELNLSSLELGDSALYFCASSGTPDTQYFGPGTRLTVLE
B9: TCR 43 (codon-optimized, cysteine-modified) (TCR, V domains shown)
V domain 1: QKEVEQNSGPLSVPEGAIASLNCTYSDRGSQSFFWYRQYSGKSPELIMFIYSNGDKEDGRFTAQLNKASQYVSLLIRDSQPSDSATYLCAVNVPTSGTYKYIFGTGTRLKVLA
V domain 2: EPEVTQTPSHQVTQMGQEVILRCVPISNHLYFYWYRQILGQKVEFLVSFYNNEISEKSEIFDDQFSVERPDGSNFTLKIRSTKLEDSAMYFCASTPRDSYEQYFGPGTRLTVTE
B10: TCR 47 (codon-optimized, cysteine-modified) (TCR, V domains shown)
V domain 1: QKEVEQNSGPLSVPEGAIASLNCTYSDRGSQSFFWYRQYSGKSPELIMFIYSNGDKEDGRFTAQLNKASQYVSLLIRDSQPSDSATYLCAVNLLSGSARQLTFGSGTQLTVLP
V domain 2: B9 V domain 2 with S94M, P96G, D98T, S99T
B11: TCR 40 (codon-optimized, cysteine-modified) (TCR, V domains shown)
V domain 1: GQQVMQIPQYQHVQEGEDFTTYCNSSTTLSNIQWYKQRPGGHPVFLIQLVKSGEVKKQKRLTFQFGEAKKNSSLHITATQTTDVGTYFCAGRNNFNKFYFGSGTKLNVKP
V domain 2: B9 V domain 2 with S94I, P96A, D98S
B12: TCR 48 (codon-optimized, cysteine-modified) (TCR, V domains shown)
V domain 1: QKEVEQDPGPLSVPEGAIVSLNCTYSNSAFQYFMWYRQYSRKGPELLMYTYSSGNKEDGRFTAQVDKSSKYISLFIRDSQPSDSATYLCAMRIQGAQKLVFGQGTRLTINP
V domain 2: B9 V domain 2 with P96G, D98V
B13: TCR 51 (codon-optimized, cysteine-modified) (TCR, V domains shown)
V domain 1: QKEVEQNSGPLSVPEGAIASLNCTYSDRGSQSFFWYRQYSGKSPELIMSIYSNGDKEDGRFTAQLNKASQYVSLLIRDSQPSDSATYLCAVNMRGGGSNYKLTFGKGTLLTVNP
V domain 2: B9 V domain 2 with S94I, T95A, P96S, D98V
B14: TCR 36 (codon-optimized, cysteine-modified) (TCR, V domains shown)
V domain 1: RKEVEQDPGPFNVPEGATVAFNCTYSNSASQSFFWYRQDCRKEPKLLMSVYSSGNEDGRFTAQLNRASQYISLLIRDSKLSDSATYLCVVNRDNYGQNFVFGPGTRLSVLP
V domain 2: B9 V domain 2 with S94M, P96G, D98S, S99N
B15: TCR 49 (codon-optimized, cysteine-modified) (TCR, V domains shown)
V domain 1: B9 V domain 1 with V93I, P94G
V domain 2: B9 V domain 2 with D98Y
B16: TCR 33 (codon-optimized, cysteine-modified) (TCR, V domains shown)
V domain 1: B9 V domain 1 with V93A, P94H, T95H, S96T, T98G, Y99F, Y101T, T105A, K110F, L112K
V domain 2: B9 V domain 2 with S99T
B17: TCR 42 (codon-optimized, cysteine-modified) (TCR, V domains shown)
V domain 1: B11 V domain 1 with R92P, N93D
V domain 2: B9 V domain 2 with S94K, P96S, D98S
B18: TCR 31 (codon-optimized, cysteine-modified) (TCR, V domains shown)
V domain 1: DQQVKQNSPSLSVQEGRISILNCDYTNSMFDYFLWYKKYPAEGPTFLISISSIKDKNEDGRFTVFLNKSAKHLSLHIVPSQPGDSAVYFCAASERGTYKYIFGTGTRLKVLA
V domain 2: GAGVSQSPSNKVTEKGKDVELRCDPISGHTALYWYRQSLGQGLEFLIYFQGNSAPDKSGLPSDRFSAERTGGSVSTLTIQRTQQEDSAVYLCASSRFLGSTDTQYFGPGTRLTVLE
B19: TCR 53 (codon-optimized, cysteine-modified) (TCR, V domains shown)
V domain 1: AQSVAQPEDQVNVAEGNPLTVKCTYSVSGNPYLFWYVQYPNRGLQFLLKYITGDNLVKGSYGFEAEFNKSQTSFHLKKPSALVSDSALYFCAVRDFGSGTYKYIFG
V domain 2: GAGVSQSPRYKVTKRGQDVALRCDPISGHVSLYWYRQALGQGPEFLTYFNYEAQQDKSGLPNDRFSAERPEGSISTLTIQRTEQRDSAMYRCASSGSGTSGYNEQFFGPGTRLTVLE
B20: TCR 45 (codon-optimized, cysteine-modified) (TCR, V domains shown)
V domain 1: GQQVMQIPQYQHVQEGEDFTTYCNSSTTLSNIQWYKQRPGGHPVFLIQLVKSGEVKKQKRLTFQFGEAKKNSSLHITATQTTDVGTYFCAGSSGAGSYQLTFGKGTKLSVIP
V domain 2: GAGVSQSPSNKVTEKGKDVELRCDPISGHTALYWYRQRLGQGLEFLIYFQGNSAPDKSGLPSDRFSAERTGESVSTLTIQRTQQEDSAVYLCASSLYLGTTGELFFGEGSRLTVLE
B21: TCR 55 (codon-optimized, cysteine-modified) (TCR)
TCR alpha: GEDVEQSLFLSVREGDSSVINCTYTDSSSTYLYWYKQEPGAGLQLLTYIFSNMDMKQDQRLTVLLNKKDKHLSLRIADTQTGDSAIYFCAVPSGATNKLIFGTGTLLAVQPNIQNPDPAVYQLRDSKSSDKSVCLFTDFDSQTNVSQSKDSDVYITDKCVLDMRSMDFKSNSAVAWSNKSDFACANAFNNSIIPEDTFFPSPESSCDVKLVEKSFETDTNLNFQNLSVIGFRILLLKVAGFNLLMTLRLWSS
TCR beta: EPEVTQTPSHQVTQMGQEVILRCVPISNHLYFYWYRQILGQKVEFLVSFYNNEISEKSEIFDDQFSVERPDGSNFTLKIRSTKLEDSAMYFCASTTRSSYEQYFGPGTRLTVTEDLKNVFPPEVAVFEPSEAEISHTQKATLVCLATGFYPDHVELSWWVNGKEVHSGVCTDPQPLKEQPALNDSRYCLSSRLRVSATFWQNPRNHFRCQVQFYGLSENDEWTQDRAKPVTQIVSAEAWGRADCGFTSESYQQGVLSATILYEILLGKATLYAVLVSALVLMAMVKRKDSRG

Each binder was assayed against T1, HLA-A2/E7(11-19) tetramer (human; HPV 16) (assay: flow cytometry, tetramer + anti-CD8; transfected mix of CD8- and CD8+ Jurkat-derived cells;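 further: cells transiently transfected with TCR-encoding plasmids, analysed 48 h afterwards by co-staining with HLA-A*02:01 peptide tetramer and anti-CD8 antibody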).
T1 construct: also called E7(11-19) peptide-MHC tetramer; E7 tet
Experimental: For transfection, the CD4+ and CD4+/CD8+ cell mixtures were transiently transfected with TCR-encoding plasmids and 48 hours after transfection, cells were assessed by flow cytometry for (1) binding of the target peptide in the context of an MHC molecule (HLA:A02:01) by staining with an E6(29-38) peptide- or an E7(11-19) peptide-MHC tetramer reagent, and/or (2) CD8+ independent binding of the target by co-staining the tetramer-labeled cells with an anti-CD8 antibody.
With B1 the “% cells E7 tet+/CD8+ quadrant” value was 1.27% and the “% cells E7 tet+/CD8- quadrant” value was 1.21%.
In the case of B2, the “% cells E7 tet+/CD8+ quadrant” value is reported as 3.28% and the “% cells E7 tet+/CD8- quadrant” value is reported as 0.25%.
With B3 the “% cells E7 tet+/CD8+ quadrant” value was 6.07% and the “% cells E7 tet+/CD8- quadrant” value was 2.41%.
With B4 the “% cells E7 tet+/CD8+ quadrant” value was 25.5% and the “% cells E7 tet+/CD8- quadrant” value was 19.5%.
In the case of B5, the “% cells E7 tet+/CD8+ quadrant” value is reported as 26.3% and the “% cells E7 tet+/CD8- quadrant” value is reported as 26%.
B6 was tested, and the “% cells E7 tet+/CD8+ quadrant” value was 14.5% and the “% cells E7 tet+/CD8- quadrant” value was 7.18%.
B7 was tested, and the “% cells E7 tet+/CD8+ quadrant” value was 12.3% and the “% cells E7 tet+/CD8- quadrant” value was 2.61%.
With B8 the “% cells E7 tet+/CD8+ quadrant” value was 2.96% and the “% cells E7 tet+/CD8- quadrant” value was 1.43%.
In the case of B9, the “% cells E7 tet+/CD8+ quadrant” value is reported as 3.82% and the “% cells E7 tet+/CD8- quadrant” value is reported as 1.88%.
For B10, the “% cells E7 tet+/CD8+ quadrant” value was 1.98% and the “% cells E7 tet+/CD8- quadrant” value was 0.71%.
B11 was tested, and the “% cells E7 tet+/CD8+ quadrant” value was 7.84% and the “% cells E7 tet+/CD8- quadrant” value was 1.37%.
B12 was tested, and the “% cells E7 tet+/CD8+ quadrant” value was 5.36% and the “% cells E7 tet+/CD8- quadrant” value was 1.29%.
B13 was tested, and the “% cells E7 tet+/CD8+ quadrant” value was 5.7% and the “% cells E7 tet+/CD8- quadrant” value was 2.06%.
B14 was tested, and the “% cells E7 tet+/CD8+ quadrant” value was 23.4% and the “% cells E7 tet+/CD8- quadrant” value was 16.7%.
In the case of B15, the “% cells E7 tet+/CD8+ quadrant” value is reported as 5.54% and the “% cells E7 tet+/CD8- quadrant” value is reported as 3.06%.
In the case of B16, the “% cells E7 tet+/CD8+ quadrant” value is reported as 22.6% and the “% cells E7 tet+/CD8- quadrant” value is reported as 14%.
B17 was tested, and the “% cells E7 tet+/CD8+ quadrant” value was 1.21% and the “% cells E7 tet+/CD8- quadrant” value was 1.65%.
B18 was tested, and the “% cells E7 tet+/CD8+ quadrant” value was 4.52% and the “% cells E7 tet+/CD8- quadrant” value was 0.042%.
In the case of B19, the “% cells E7 tet+/CD8+ quadrant” value is reported as 3.35% and the “% cells E7 tet+/CD8- quadrant” value is reported as 0.43%.
B20 was tested, and the “% cells E7 tet+/CD8+ quadrant” value was 22.4% and the “% cells E7 tet+/CD8- quadrant” value was 16.9%.
For B21, the “% cells E7 tet+/CD8+ quadrant” value was 1.45% and the “% cells E7 tet+/CD8- quadrant” value was 0.28%.
